From publication PMC7558290, “Evaluation on Elongation Factor 1 Alpha of Entamoeba histolytica Interaction with the Intermediate Subunit of the Gal/GalNAc Lectin and Actin in Phagocytosis” (Pathogens, 2020)

Target: T1, recombinant EF1a protein (rEF1a), elongation factor 1 alpha of Entamoeba histolytica (Entamoeba histolytica, UniProt P31018 1-442)
T1 construct: Elongation factor 1 alpha (EF1a) of Entamoeba histolytica
T1 sequence (looked up): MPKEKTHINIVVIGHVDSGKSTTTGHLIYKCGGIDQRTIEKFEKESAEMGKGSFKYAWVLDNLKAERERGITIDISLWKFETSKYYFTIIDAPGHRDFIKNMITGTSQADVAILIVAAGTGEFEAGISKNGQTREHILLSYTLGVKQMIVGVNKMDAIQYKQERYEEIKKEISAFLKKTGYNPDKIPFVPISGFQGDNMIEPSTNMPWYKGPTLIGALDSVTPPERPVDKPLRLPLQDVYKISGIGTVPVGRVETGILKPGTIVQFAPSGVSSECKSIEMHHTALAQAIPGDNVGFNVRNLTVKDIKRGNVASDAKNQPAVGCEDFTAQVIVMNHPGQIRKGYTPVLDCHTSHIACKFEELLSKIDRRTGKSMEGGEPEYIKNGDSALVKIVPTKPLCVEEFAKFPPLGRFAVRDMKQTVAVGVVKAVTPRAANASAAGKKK
Assay: BLI; Octet-Red96; Igl-C (30 ug/mL, sodium acetate pH 4.0) or BSA (sodium acetate pH 5.0) immobilised on activated AR2G biosensors; rEF1a as analyte, twofold dilutions 4000 to 250 nM; running buffer pH 7.4, 1x Kinetics buffer, 30 °C; 1:1 binding model
Conditions: both partners purified

B1: C-terminal fragment of the intermediate subunit of the Gal/GalNAc lectin (Igl-C) (domain or fragment)
chain: EGPNAEDKKKSCAQLNNNCKKEGKYEISDGFVTCLDCDDSAYIVGSQVGACTQCSPNAFKDENNKCQLCSTKQSQYGHCAACSATACITCEDINLILTGEKPCTVCKDGFYQIENATDGVYCSPCPAKCKTCKYNTTSKKVECVTCTEQRLKDIKAPECACPTGTVQLENGTCQSCSDLSKYPGCKKTDSCNVDSRTGFIYATECSDGFSGRSPYSNCTTCTKSNYYPKEGEKNGCAKCDDKCATCSDKDTCLTCADPLKVGSKCDGCKTGYYMSNGECKPCTNHCSECSSAAECTVCESDTYKVISGNGCNSCVDGFYFDEIKGTCIPCTSPCTKCVGVKKDCEEQETGCNSEKKKIVEECTKCSTKDHIAEVPVNGACVCAYGYVEGTSTEDNKIECQACKAKVNEFCDSCNSKDCLRCNAEYLEAKGGECVCVEGYYTSSWGSCIPCSRHMPHCTKCTGEGECTTCEDGWKLKDGKCNGAKGI
Question: B1 was tested. Which Kd did it give?
Answer: 90.7 nM

Question: And the koff?
Answer: 0.000347 s⁻¹

Question: And the kon?
Answer: 3810 M⁻¹ s⁻¹
